Assay results taken from paper PMC3877047 (PLoS ONE, 2013).

T1: HMunc18c (His6-tagged full-length mouse Munc18c from a codon-optimised synthetic gene in pQE30) (mouse, UniProt Q60770 1-592)
T1 construct: Monomer by SEC-MALS; also called pQE30-His6-Munc18c; bacterially expressed Munc18c; source: E. coli BL21, co-expressed with GroEL/GroES, purified (IMAC PrepEase, SEC, MonoS IEC); not shown: His6, N-terminal, kept
T1 sequence (looked up): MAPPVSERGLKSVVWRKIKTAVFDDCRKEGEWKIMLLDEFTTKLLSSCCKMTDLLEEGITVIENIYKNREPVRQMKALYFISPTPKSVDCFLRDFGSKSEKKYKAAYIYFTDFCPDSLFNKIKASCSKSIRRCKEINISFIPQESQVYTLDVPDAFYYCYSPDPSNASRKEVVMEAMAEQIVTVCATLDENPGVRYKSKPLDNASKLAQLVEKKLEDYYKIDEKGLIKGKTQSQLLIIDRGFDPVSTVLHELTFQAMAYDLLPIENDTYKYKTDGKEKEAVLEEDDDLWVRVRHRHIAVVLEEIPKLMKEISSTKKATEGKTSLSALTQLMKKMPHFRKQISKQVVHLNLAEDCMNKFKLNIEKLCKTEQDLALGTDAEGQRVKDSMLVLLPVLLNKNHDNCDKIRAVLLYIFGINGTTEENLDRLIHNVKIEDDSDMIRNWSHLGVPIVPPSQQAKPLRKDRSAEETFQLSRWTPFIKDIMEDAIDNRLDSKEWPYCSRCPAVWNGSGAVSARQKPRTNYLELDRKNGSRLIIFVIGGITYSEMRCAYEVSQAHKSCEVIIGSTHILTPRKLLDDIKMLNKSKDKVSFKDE

B1: Sx4(1-275)-His (C-terminally His6-tagged Syntaxin4 C141S, residues 1-275) (domain or fragment, UniProt P70452 1-275, looked up)
chain: MRDRTHELRQGDNISDDEDEVRVALVVHSGAARLGSPDDEFFQKVQTIRQTMAKLESKVRELEKQQVTILATPLPEESMKQGLQNLREEIKQLGREVRAQLKAIEPQKEEADENYNSVNTRMKKTQHGVLSQQFVELINKSNSMQSEYREKNVERIRRQLKITNAGMVSDEELEQMLDSGQSEVFVSNILKDTQVTRQALNEISARHSEIQQLERSIRELHEIFTFLATEVEMQGEMINRIEKNILSSADYVERGQEHVKIALENQKKARKKKVM
notes: source: also in lysate for the co-purification; not shown: His6, C-terminal, kept

What was measured:
[1] = target: T1, HMunc18c (His6-tagged full-length mouse …); experiment: ITC; 298 K, iTC200; Sx4(1-275)-His 200-220 µM titrated into 20-30 µM HMunc18c in the cell; 25 mM HEPES pH 8, 200 mM NaCl, 10% glycerol, 2 mM β-ME; single site model; four replicates, mean ± SEM; details: both partners purified
[2] = target: B1; experiment: pull-down + SEC; lysates of un-tagged Munc18c and Sx4(1-275)-His mixed 3:1 by volume, captured on TALON beads, eluted, Superdex 200 in 25 mM Tris-HCl pH 7.5, 300 mM NaCl, 10% glycerol; peak fractions on SDS-PAGE; details: partners not purified

| Binder | Kd [1] [nM] | dH [1] [kcal/mol] | stoichiometry N [1] | stoichiometry N [2] |
| --- | --- | --- | --- | --- |
| B1 | 104 | -11 | 0.97 | – |
| Munc18c (un-tagged) (natural protein, mouse, UniProt Q60770 1-592, looked up, made from pQE30-HMunc18c by PCR that removes the His6 codons; A few vector-encoded residues may be left at the N-terminus (surmised); also called untagged Munc18c; un-tagged Munc18c) MAPPVSERGLKSVVWRKIKTAVFDDCRKEGEWKIMLLDEFTTKLLSSCCKMTDLLEEGITVIENIYKNREPVRQMKALYFISPTPKSVDCFLRDFGSKSEKKYKAAYIYFTDFCPDSLFNKIKASCSKSIRRCKEINISFIPQESQVYTLDVPDAFYYCYSPDPSNASRKEVVMEAMAEQIVTVCATLDENPGVRYKSKPLDNASKLAQLVEKKLEDYYKIDEKGLIKGKTQSQLLIIDRGFDPVSTVLHELTFQAMAYDLLPIENDTYKYKTDGKEKEAVLEEDDDLWVRVRHRHIAVVLEEIPKLMKEISSTKKATEGKTSLSALTQLMKKMPHFRKQISKQVVHLNLAEDCMNKFKLNIEKLCKTEQDLALGTDAEGQRVKDSMLVLLPVLLNKNHDNCDKIRAVLLYIFGINGTTEENLDRLIHNVKIEDDSDMIRNWSHLGVPIVPPSQQAKPLRKDRSAEETFQLSRWTPFIKDIMEDAIDNRLDSKEWPYCSRCPAVWNGSGAVSARQKPRTNYLELDRKNGSRLIIFVIGGITYSEMRCAYEVSQAHKSCEVIIGSTHILTPRKLLDDIKMLNKSKDKVSFKDE | – | – | – | 1 |
